According to paper PMC7139925, “Tuning the Polymorphism of the Anti-VEGF G-rich V7t1 Aptamer by Covalent Dimeric Constructs”:

Target: VEGF165 (UniProt P15692-4 27-191)
Assay: EMSA; annealed; HEPES/Na+; 1:1.3; almost fully bound; 25 mM HEPES, 150 mM NaCl, pH 7.4; 30 pmol oligo + 40 pmol protein in 9 uL, 30 min at 4 C; 7% native PAGE in TAE 1X pH 7.8 at r.t.
Settings: protein: recombinant; chain copies: 2; G4; 2 copies of strand covalently linked 3'-3'

Sequence of VEGF165 (P15692 other isoform, or with tags, fused parts or gaps): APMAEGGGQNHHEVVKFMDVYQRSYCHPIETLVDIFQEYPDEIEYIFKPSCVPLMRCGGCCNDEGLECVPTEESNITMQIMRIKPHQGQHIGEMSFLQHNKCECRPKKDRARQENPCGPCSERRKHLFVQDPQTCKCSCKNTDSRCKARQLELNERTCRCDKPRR

B1: bisV7t1TEG2D (structured_DNA)
DNA: TGTGGGGGTGGACGGGCCGGGTAGA
modifications: two V7t1 copies joined 3' to 3' by TEG/symmetric doubler linker (C25H53N2O24P5), inverted polarity
B1: binds.
